Residue numbers refer to the chain shown, from its start.
B1: PRT-526 (protein)
chain: MANQEIRYSEETPKTITSVWTKGVTPPTDFIKNEDVLHAPYIANQGWYDITKTFNGKDDLLCGAATAGNMLHWWFDQNKEEIERYLKKHPEKQKINFNGEQMFDVKEAIDTKDSQTDSALFEYFKDKAFPNLSTKHLGVMPDHVLDMFINGYYLSLGKHGPTPVKRGTKDPRGGIFDAVFTRGDQSKLLTSRHDFKEKTLKEISDLIKQELTEGKALALSHTYANVRINHVINLWGADFDSEGNLEAIYVTDSDSNASIGMKKYYVGVNSAGKVAISAKEIEGDNIGAQVLGLFTLSTGQDIWEQTNLEHHHHHH
B2: PRT-545 (protein)
chain: B1 chain with N131Y, M140F, L145I, Y153R, G157T, K158N, A218G
B3: PRT-533 (protein)
chain: MANQEIRYSSDSEWANKKVWVYGITPPEEGAWKYSTYYLPWKKEYGWYDCNKRNPTADGMMCWAATASNLLHWWIAQNKEYIDLYGDKYKGPDKINFNGEQMFDVKEYIDPLDKPQESDIFQCFIDKSFADLSTKHEAGYGDAGINWFIHGIIPSSPAHGPTPVKLDYPYNPAGYFKDVFPRGDGVVLLGNNGDFKELSKERFNETIKDALKNKKAIGLSIGPVNVRSSHVVTIWGAEFDENGDVSYIYMADNNDRWGVGCIRYQIVYEEGGTYTCYKTEIIPSDRPIPINRLVTLELGEEYWKQTNLEHHHHHH
B4: PRT-586 (protein)
chain: MANQEIRYSEETPKTITSVWTKGVTPPTDFIYNEDVLHAPYIANQGWYDITKTFNGKDDLLCGAATAGNMLHWWFDQNKEQIERYLKKHPEKQKINFNGEQMFDVKEAIDTKDSQTDSKLFEYFKDKAFPYLSTKHLGVFPDHVIDMFINGYRLSLTNHGPTPVKRGTKDPRGGIFDAVFTRGDQSKLLTSRHDFKEKTLNEISDLIKQELTEGKALGLSHTYANVRINHVINLWGADFNAEGNLEAIYVTDSDSNASIGMKKYYVGVNSAGKVAISAKEIEGDNIGAQVLGLFTLSTGQDIWEQTNLEHHHHHH
B5: PRT-587 (protein)
chain: B4 chain with A241S, Q300K
B6: PRT-576 (protein)
chain: B4 chain with E10K, E11A, K14S, T28E, D29N, I42L, D117N, R166E, G167Q, E304Q
B7: PRT-571 (protein)
chain: B4 chain with K14S, D29Q, Y32Q, R84N, K119A, S270A, E304N
B8: PRT-596 (protein)
chain: B4 chain with K14S, Y32Q, R84N, K119A, Q209K, E304N
B9: PRT-595 (protein)
chain: B4 chain with K14S, Y32Q, R84N, K119A, T199N, E304N
B10: PRT-566 (protein)
chain: B4 chain with K14S, D29Q, Y32Q, R84N, K119A, E304N
B11: PRT-559 (protein)
chain: MANQEIRYSEETPKTITSIWTKGVTPPTDFIKTEDVLHAPYVANQGWYDITKTFNGKDDLLCGAATAGNMLHWWFDQNKEEIENYLKKHPEKQKINFNGEQMFDVKEAIDTKDSQTDSALFEYFKDKAFPYLSTKHLGVFPDHVIDMFINGYRLSLTNHGPTPVKDGTKDPRGGIFDAVFTRGDQTKLLTERHDFKEKTLNEISDLIKQELTEGKALGLSHTYANVRINHVINLWGADFNSEGNLEAIYVTDSDSNASIGMKKYYVGVNAAGKVAISAKEIEDDNIGAQVLGLFTLSTGQDIWEQTNLEHHHHHH
B12: PRT-261 (protein)
chain: MVTSVWTKGVTPPTNFTYGEDVLHAPYVANQGWYDITKLFNGKDNLLCGAATAGNMLHWWFDQNKEQIENYLKKHPEKQKINFNGEQLFDVKEAIDTKDSQLDSKLFDYFKEKAFPNLSTKHLGVFPDHVIDMFINGYRLSLLNHGPTPVKRGSKDKRGGIFDAVFTRGVQSKLLTNRHDFKEKTLKEISDLIKQELTEGKALGISHTYANGRINHVINLWGADFDAEGNLEAIYVTDSDTNPSIGMKKYFVGVNSSGKVAISAKEIEEDNIGAQVLGLFTLSTGQDIWNQTN
B13: PRT-253 (protein)
chain: MVTSVWTKGVTPPTNFTYGEDVLHAPYVANQGWYDITKTFNGKDDLLCGAATAGNMLHWWFDQNKEQIENYLKKHPEKQKINFNGEQMFDVKEAIDTKDSQLDSKLFEYFLEKAFPNLSTKHLGVFPDHVIDMFINGYRLSLLNHGPTPVKRGSKDPRGGIFDAVFTRGDQSKLLTNRHDFKEKTLKEISDLIKQELTEGKALGISHTYANVRINHVINLWGADFDAEGNLEAIYVTDSDSNKSIGMKKYFVGVNSDGKVAISAKEIEEDNIGAQVLGLFTLSTGQDIWNQTN
B14: PRT-269 (protein)
chain: B13 chain with N15D, T17I, V28K, N30G, F181L, E183N, Y235A, K243A, D257S
B15: PRT-245 (protein)
chain: MVTSVWTKGVTPPANFTQGEDVFHAPYVANQGWYDITKLFNGKDDLLCGAATAGNMLHWWFDQNKDQIKRYLEEHPEKQKINFNGEQMFDVKEAIDTKNHQLDSKLFEYFLEKAFPNLSTKHLGVFPDHVIDMFINGYRLSLLNHGPTPVKEGSKDPRGGIFDAVFTRGDQSKLLTSRHDFKEKNLKEISDLIKKELTEGKALGLSHTYANGRINHVINLWGADFDSNGNLKAIAVTDSDSNASIGMKKYFVGVNSSGKVAISAKEIKEDNIGAQVLGLFTLSTGQDSWNQTN
B16: PRT-582 (protein)
chain: MANQEIRYSKAKPKVITSVWTKGVTPPTQFTKNEDVFHAPYLANQGWYDITKTFNGKDDLLCGAATAGNMLHWWFDQNKEQIERYLKKHPEKQKINFNGEQMFDVKEAIDTKDSQTNSKLFNYFKDKAFPYLSTKHLGVFPDHVIDMFINGYRLSLTNHGPTPVKEQNKDPRGGIFDDVFTRGDQSKLLTSRHDFKEKTLKEISDLIKQELKEGKALGLSHTYANVRINHVINLWGADFDAEGNLVAIYVTDSDSNASIGMKKYYVGVNSAGKVAISAKEIEDDNIGAQVLGLFTLSTGKDIWEKTNLEHHHHHH
B17: PRT-583 (protein)
chain: B16 chain with D126E, V246I

Target: pooled human IgG (human IgG1, 2, 3 and 4)

Row | Protein | Enzyme Activity Endpoint Assay: Fab′2 [ng/µL] | Enzyme Activity Endpoint Assay: Fc [ng/µL] | Enzyme Activity Endpoint Assay: IgG [ng/µL] | Enzyme Activity Endpoint Assay: scIgG [ng/µL]
1 | B1 | 246 | 379 | 110 | 627
2 | B2 | 690 | 435 | 0 | 0
3 | B3 | 0 | 0 | 1140 | 0
4 | B4 | 478 | 322 | 77 | 458
5 | B5 | 347 | 156 | 0 | 120
6 | B6 | 903 | 365 | 0 | 0
7 | B7 | 786 | 383 | 0 | 295
8 | B8 | 753 | 348 | 0 | 263
9 | B9 | 1040 | 452 | 0 | 0
10 | B10 | 621 | 366 | 0 | 0
11 | B11 | 657 | 158 | 0 | 0
12 | B12 | 0 | 76 | 615 | 317
13 | B13 | 912 | 334 | 0 | 0
14 | B14 | 98 | 189 | 86 | 592
15 | B15 | 423 | 277 | 46 | 204
16 | B16 | 28 | 183 | 329 | 754
17 | B17 | 748 | 396 | 0 | 261
